The target in one test is VAMP2 (mouse) (UniProt P63044).
Another test concerns the target Syntaxin1 (rat) (UniProt P32851).
Test [1] deals with Munc13-1 C1-C2B-MUN-C2C domain (rat) (UniProt Q62768).

Chain of UniProt P63044 (P63044 whole entry): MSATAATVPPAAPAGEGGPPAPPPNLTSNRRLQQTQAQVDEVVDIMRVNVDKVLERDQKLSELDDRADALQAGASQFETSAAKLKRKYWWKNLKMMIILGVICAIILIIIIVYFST
Chain of UniProt P32851 (P32851 whole entry, the tested form may be a part): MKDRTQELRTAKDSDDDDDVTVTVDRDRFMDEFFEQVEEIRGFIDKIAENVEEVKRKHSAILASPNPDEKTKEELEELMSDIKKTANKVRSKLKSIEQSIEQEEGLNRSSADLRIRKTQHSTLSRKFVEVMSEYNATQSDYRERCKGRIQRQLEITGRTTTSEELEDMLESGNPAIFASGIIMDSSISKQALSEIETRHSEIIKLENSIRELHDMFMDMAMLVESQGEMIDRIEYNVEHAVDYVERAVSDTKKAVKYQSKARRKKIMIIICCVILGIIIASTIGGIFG

“Munc13-1 C1-C2B-MUN-C2C domain D1358K (from UniProt Q62768 529-1407; Q62768 1453-1735) (domain or fragment)”: in the test with VAMP2 (mouse), the Ca^2+ (100 μM)-evoked fusion of the immobile, clamped vesicles, with 500 nM DHG was determined as 20%.
Regarding “Munc13-1 C1-C2B-MUN-C2C domain N1128A/F1131A (from UniProt Q62768 529-1407; Q62768 1453-1735) (domain or fragment)”, in the test with Syntaxin1 (rat), the Ca^2+ (100 μM)-evoked fusion of the immobile, clamped vesicles, with 500 nM DHG worked out at 20%.
In test [1], “SNAP25 linker mutant with residues 113-138 replaced by a GGGGS repeat sequence (from UniProt P60879 1-112; P60879 139-206) (natural protein)” gave a Ca^2+ (100 μM)-evoked fusion of the immobile, clamped vesicles, with 500 nM DHG of 20%.

Values taken from paper doi:10.1101/2023.06.05.543781.
